The series concerns the molecule itself. As to the kind of experiment: cryo-EM structure.

A word on the stoichiometry N: it is a count of units in the complex or per binding partner.

B1: ArnC from Salmonella enterica (ArnCSe) (enzyme, UniProt O52324 1-327, looked up)
chain: MFDAAPIKKVSVVIPVYNEQESLPELIRRTTTACESLGKAWEILLIDDGSSDSSAELMVKASQEADSHIISILLNRNYGQHAAIMAGFSHVSGDLIITLDADLQNPPEEIPRLVAKADEGFDVVGTVRQNRQDSLFRKSASKIINLLIQRTTGKAMGDYGCMLRAYRRPIIDTMLRCHERSTFIPILANIFARRATEIPVHHAEREFGDSKYSFMRLINLMYDLVTCLTTTPLRLLSLLGSVIAIGGFSLSVLLIVLRLALGPQWAAEGVFMLFAVLFTFIGAQFIGMGLLGEYIGRIYNDVRARPRYFVQQVIYPESTPFTEESHQ
Regarding B1, the “stoichiometry N” value is 4.

The values above are taken from paper PMC11838356 (bioRxiv, 2025).
